Laboratory results: paper PMC3646893, “Solution Structure and Rpn1 Interaction of the UBL Domain of Human RNA Polymerase II C-Terminal Domain Phosphatase” (PLoS ONE, 2013)

Target: T1, Rpn1 regulatory subunit 1 (Rpn1 394-568), as used for NMR titration and ITC (human, UniProt Q13200 394-568)
T1 construct: source: E. coli BL21 (DE3), purified (size exclusion chromatography)
Test: ITC; VP-ITC, 25°C, NMR buffer; 20 µM Rpn1 regulatory subunit 1 in the cell, 25 injections of 6 µL of 400 µM UBL domain; one-site fit
Details: both partners purified

T1 sequence (Q13200 394-568): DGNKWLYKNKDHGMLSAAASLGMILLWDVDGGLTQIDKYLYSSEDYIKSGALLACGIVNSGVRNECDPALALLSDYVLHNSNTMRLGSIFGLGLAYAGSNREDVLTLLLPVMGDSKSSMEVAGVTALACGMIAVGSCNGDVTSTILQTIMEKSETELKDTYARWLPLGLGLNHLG

Kd: 10.3 µM | dH: -53.8 kcal/mol
B1: UBL domain of hUBLCP1 (UBLCP1 1-81), as used for NMR and ITC (domain or fragment, human, UniProt Q8WVY7 1-81, looked up)
chain: MALPIIVKWGGQEYSVTTLSEDDTVLDLKQFLKTLTGVLPERQKLLGLKVKGKPAENDVKLGALKLKPNTKIMMMGTREES
notes: UBL domain of human UBLCP1, residues 1-81; 15N-labelled (M9 medium) for the NMR titration; also called 15N-labeled UBL domain; source: E. coli BL21 (DE3), purified (size exclusion chromatography)
